Experimental findings from article doi:10.1101/2020.07.27.222380, “NBS1-CtIP–Mediated DNA End Resection Regulates cGAS Binding to Micronuclei” are described below.

In the series the target is cGAS (human, UniProt Q8N884 1-522). As to the kind of experiment: EMSA; 5-10 uM cGAS, 50 fmol DNA, 1 mM Mg2+; 10 mM Hepes-NaOH pH 7.5, 100 mM NaCl, 1 mM DTT, 1 mM MgCl2, 20 ug/mL BSA, 25-50 fmol DNA, 25 C 30 min; native PAGE 5% or 6% (Methods), 0.5x TBE. To be noted: protein: recombinant; tags: His (pET28a-His-hcGAS); label: 32P. A general note: Mobility shift assays separate free from complexed probe on a gel.
cGAS, sequence (Q8N884 whole entry): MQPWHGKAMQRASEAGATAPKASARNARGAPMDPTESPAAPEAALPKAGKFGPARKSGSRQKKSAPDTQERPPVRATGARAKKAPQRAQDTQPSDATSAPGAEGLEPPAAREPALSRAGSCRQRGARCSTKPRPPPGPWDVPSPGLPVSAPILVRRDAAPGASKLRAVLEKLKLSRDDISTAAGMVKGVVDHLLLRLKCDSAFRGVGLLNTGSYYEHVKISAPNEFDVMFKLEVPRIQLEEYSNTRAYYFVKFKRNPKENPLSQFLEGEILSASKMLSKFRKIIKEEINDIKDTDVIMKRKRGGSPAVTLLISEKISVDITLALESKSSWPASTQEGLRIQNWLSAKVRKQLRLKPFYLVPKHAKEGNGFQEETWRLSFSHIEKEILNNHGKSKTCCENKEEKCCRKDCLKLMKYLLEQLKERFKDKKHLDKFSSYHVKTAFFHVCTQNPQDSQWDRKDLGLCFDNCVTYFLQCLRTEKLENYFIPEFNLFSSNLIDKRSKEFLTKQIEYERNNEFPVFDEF

B1: ISRE 45-bp dsDNA (dsDNA)
DNA 1: TACAGATCTACTAGTGATCTATGACTGATCTGTACATGATCTACACCAAAGAGCATTGTAGATCATGTACAGATCAGTCATAGATCACTAGTAGATCTGTA
DNA 2: TACAGATCTACTAGTGATCTATGACTGATCTGTACATGATCTACAATGCTCTTTGGTGTAGATCATGTACAGATCAGTCATAGATCACTAGTAGATCTGTA
As to B1, the binding result is listed as “binds”.
